Measurements: patent US20230407373A1 (priority 2020, published 2023)
Like-named read-outs stand apart in the source and are kept apart here.

How the values were obtained:
Assay type in all cases: binding
SARS-CoV-2 gRNA = details: for target (unweighted spectral count of the protein in the RNP capture): LC-MS/MS, Probe I sample (first 199 lines of Table 2)
HCoV-OC43 gRNA and sgRNA = details: for target (unweighted spectral count, OC43 Probe II capture) / target (unweighted spectral count): tested against no-probe control; for target (unweighted spectral count, OC43 Probe II capture): FDR<10%; for target (unweighted spectral count): OC43 Probe II, infected cells; for target (unweighted spectral count, OC43 Probe II) / background (unweighted spectral count, no-probe control): type n_48_v, 48 hpi; for target (unweighted spectral count, OC43 Probe II): OC43 Probe II capture on infected cells; for background (unweighted spectral count, no-probe control): no-probe control on infected cells; for target (spectral count) / background (spectral count): type s_36_m, Probe II; for target (spectral count): HCoV-OC43-infected HCT-8 cells; for background (spectral count): uninfected-probe control
[1] = test system: SARS-CoV-2 gRNA and sgRNAs; details: for background (unweighted spectral count in control): no-probe control pull-down, used as background for Probe II; for target (unweighted spectral count in RNP capture): Probe II capture, LC-MS/MS LFQ
gRNA of HCoV-OC43 = details: for target (spectral count) / background (spectral count): type g_36_m, 36 hpi, Probe I; for target (spectral count): HCoV-OC43-infected HCT-8 cells; for background (spectral count): uninfected-probe control; for target (spectral count, OC43 Probe I RNP capture) / background (spectral count, no-probe control): type n_48_v: 48 hours post-infection; for target (spectral count, OC43 Probe I RNP capture): infected cells, unweighted spectral count; for background (spectral count, no-probe control): no-probe control on infected cells

| Molecule | enrichment in SARS-CoV-2 Probe I RNP capture (SARS-CoV-2 gRNA) | target (unweighted spectral count of the protein in the RNP capture) (SARS-CoV-2 gRNA) | target (unweighted spectral count, OC43 Probe II capture) (HCoV-OC43 gRNA and sgRNA; 36 hpi, type n_36_v) | target (unweighted spectral count) (HCoV-OC43 gRNA and sgRNA; 12 hpi (type n_12_v)) | target (unweighted spectral count) (HCoV-OC43 gRNA and sgRNA; 24 hpi (type n_24_v)) | target (unweighted spectral count, OC43 Probe II) (HCoV-OC43 gRNA and sgRNA) | background (unweighted spectral count, no-probe control) (HCoV-OC43 gRNA and sgRNA) | target (spectral count) (HCoV-OC43 gRNA and sgRNA; 36 hpi) | background (spectral count) (HCoV-OC43 gRNA and sgRNA; 36 hpi) | enrichment in SARS-CoV-2 Probe II RNP capture [1] | background (unweighted spectral count in control) [1] | target (spectral count) (gRNA of HCoV-OC43) | background (spectral count) (gRNA of HCoV-OC43) | target (spectral count, OC43 Probe I RNP capture) (gRNA of HCoV-OC43) | background (spectral count, no-probe control) (gRNA of HCoV-OC43) | target (unweighted spectral count, OC43 Probe II capture) (HCoV-OC43 gRNA and sgRNA; 24 hpi, type n_24_v) | target (unweighted spectral count in RNP capture) [1] |
| --- | --- | --- | --- | --- | --- | --- | --- | --- | --- | --- | --- | --- | --- | --- | --- | --- | --- |
| SND1: host protein, UniProt Q7KZF4 (protein, UniProt Q7KZF4 2-910, looked up) Staphylococcal nuclease …: ASSAQSGGSSGGPAVPTVQRGIIKMVLSGCAIIVRGQPRGGPPPERQINLSNIRAGNLARRAAATQPDAKDTPDEPWAFPAREFLRKKLIGKEVCFTIENKTPQGREYGMIYLGKDTNGENIAESLVAEGLATRREGMRANNPEQNRLSECEEQAKAAKKGMWSEGNGSHTIRDLKYTIENPRHFVDSHHQKPVNAIIEHVRDGSVVRALLLPDYYLVTVMLSGIKCPTFRREADGSETPEPFAAEAKFFTESRLLQRDVQIILESCHNQNILGTILHPNGNITELLLKEGFARCVDWSIAVYTRGAEKLRAAERFAKERRLRIWRDYVAPTANLDQKDKQFVAKVMQVLNADAIVVKLNSGDYKTIHLSSIRPPRLEGENTQDKNKKLRPLYDIPYMFEAREFLRKKLIGKKVNVTVDYIRPASPATETVPAFSERTCATVTIGGINIAEALVSKGLATVIRYRQDDDQRSSHYDELLAAEARAIKNGKGLHSKKEVPIHRVADISGDTQKAKQFLPFLQRAGRSEAVVEYVFSGSRLKLYLPKETCLITFLLAGIECPRGARNLPGLVQEGEPFSEEATLFTKELVLQREVEVEVESMDKAGNFIGWLHIDGANLSVLLVEHALSKVHFTAERSSYYKSLLSAEEAAKQKKEKVWAHYEEQPVEEVMPVLEEKERSASYKPVFVTEITDDLHFYVQDVETGTQLEKLMENMRNDIASHPPVEGSYAPRRGEFCIAKFVDGEWYRARVEKVESPAKIHVFYIDYGNREVLPSTRLGTLSPAFSTRVLPAQATEYAFAFIQVPQDDDARTDAVDSVVRDIQNTQCLLNVEHLSAGCPHVTLQFADSKGDVGLGLVKEGLVMVEVRKEKQFQKVITEYLNAQESAKSARLNLWRYGDFRADDADEFGYSR | found in the SARS-CoV-2 experiments | 16 | 57 | 27 | 37 | 84 | 6 | 57 | 1 | found in the SARS-CoV-2 experiments | 1 | 16 | 3 | 25 | 6 |  |  |
| LRRC47: host protein, UniProt Q8N1G4 (protein, UniProt Q8N1G4 2-583, looked up) Leucine-rich …: AAAAVSESWPELELAERERRRELLLTGPGLEERVRAAGGQLPPRLFTLPLLHYLEVSGCGSLRAPGPGLAQGLPQLHSLVLRRNALGPGLSPELGPLPALRVLDLSGNALEALPPGQGLGPAEPPGLPQLQSLNLSGNRLRELPADLARCAPRLQSLNLTGNCLDSFPAELFRPGALPLLSELAAADNCLRELSPDIAHLASLKTLDLSNNQLSEIPAELADCPKLKEINFRGNKLRDKRLEKMVSGCQTRSILEYLRVGGRGGGKGKGRAEGSEKEESRRKRRERKQRREGGDGEEQDVGDAGRLLLRVLHVSENPVPLTVRVSPEVRDVRPYIVGAVVRGMDLQPGNALKRFLTSQTKLHEDLCEKRTAATLATHELRAVKGPLLYCARPPQDLKIVPLGRKEAKAKELVRQLQLEAEEQRKQKKRQSVSGLHRYLHLLDGNENYPCLVDADGDVISFPPITNSEKTKVKKTTSDLFLEVTSATSLQICKDVMDALILKMAEMKKYTLENKEEGSLSDTEADAVSGQLPDPTTNPSAGKDGPSLLVVEQVRVVDLEGSLKVVYPSKADLATAPPHVTVVR |  | 14 |  |  |  |  |  | 7 | 1 |  | 1 |  |  |  |  | 4 | 13 |
| RALY: host protein, UniProt Q9UKM9 (protein, UniProt Q9UKM9 2-306, looked up) RNA-binding protein Raly: SLKLQASNVTNKNDPKSINSRVFIGNLNTALVKKSDVETIFSKYGRVAGCSVHKGYAFVQYSNERHARAAVLGENGRVLAGQTLDINMAGEPKPDRPKGLKRAASAIYSGYIFDYDYYRDDFYDRLFDYRGRLSPVPVPRAVPVKRPRVTVPLVRRVKTNVPVKLFARSTAVTTSSAKIKLKSSELQAIKTELTQIKSNIDALLSRLEQIAAEQKANPDGKKKGDGGGAGGGGGGGGSGGGGSGGGGGGGSSRPPAPQENTTSEAGLPQGEARTRDDGDEEGLLTHSEEELEHSQDTDADDGALQ | found in the SARS-CoV-2 experiments | 33 | 23 | 4 | 14 | 24 | 2 | 23 | 2 | found in the SARS-CoV-2 experiments | 1 | 28 | 3 | 31 | 2 |  | 28 |
| PABPC4: host protein, UniProt Q13310 (protein, UniProt Q13310 1-644, looked up) Polyadenylate-binding protein …: MNAAASSYPMASLYVGDLHSDVTEAMLYEKFSPAGPVLSIRVCRDMITRRSLGYAYVNFQQPADAERALDTMNFDVIKGKPIRIMWSQRDPSLRKSGVGNVFIKNLDKSIDNKALYDTFSAFGNILSCKVVCDENGSKGYAFVHFETQEAADKAIEKMNGMLLNDRKVFVGRFKSRKEREAELGAKAKEFTNVYIKNFGEEVDDESLKELFSQFGKTLSVKVMRDPNGKSKGFGFVSYEKHEDANKAVEEMNGKEISGKIIFVGRAQKKVERQAELKRKFEQLKQERISRYQGVNLYIKNLDDTIDDEKLRKEFSPFGSITSAKVMLEDGRSKGFGFVCFSSPEEATKAVTEMNGRIVGSKPLYVALAQRKEERKAHLTNQYMQRVAGMRALPANAILNQFQPAAGGYFVPAVPQAQGRPPYYTPNQLAQMRPNPRWQQGGRPQGFQGMPSAIRQSGPRPTLRHLAPTGSECPDRLAMDFGGAGAAQQGLTDSCQSGGVPTAVQNLAPRAAVAAAAPRAVAPYKYASSVRSPHPAIQPLQAPQPAVHVQGQEPLTASMLAAAPPQEQKQMLGERLFPLIQTMHSNLAGKITGMLLEIDNSELLHMLESPESLRSKVDEAVAVLQAHHAKKEAAQKVGAVAAATS | found in the SARS-CoV-2 experiments |  | 11 |  | 6 | 11 | 1 | 11 | 1 | found in the SARS-CoV-2 experiments |  | 12 | 2 | 11 | 1 |  |  |
